Holding throughout (experiment): BLI, IgG
Background: BLI is a label-free optical method that tracks binding on a fibre tip over time.

The target in assay [1] is T1, RSV postfusion F (postF), subtype A (respiratory syncytial virus subtype A, UniProt P03420 26-513).
T1 construct: also called Postfusion subtype A; F deltaFP

Assay [2] has as its target T2, RSV prefusion F (preF), subtype B (respiratory syncytial virus subtype B).
T2 construct: also called Prefusion subtype B

Assay [3] has as its target T3, RSV postfusion F (postF), subtype B (respiratory syncytial virus subtype B).
T3 construct: also called Postfusion subtype B

By Kd is commonly meant a measure of binding affinity in units of concentration. A low value points to tighter binding.

B1: ADI-19484 (antibody, V domains shown)
VH: QVQLQESGSGLVKPSQTLSLTCVVSGGSISSGGNSWSWIRQPPGKGLEWIGYIYDSGNTYYNPSLKSRVTISVDRSKNQFSLKVSSVTAADTAVYYCARGAETGTTGWYDPWGQGTLVTVSS
VL: DIRLTQSPSSLSASVGDRVTITCRASQTISSYLNWYQQKPGKAPRLLIYAASSLQSGVPSRFSGSGSGTDFTLTISSLQPEDFATYYCQQSYGTPRTFGQGTKVEIK
notes: full-length IgG
In the case of B1, the Kd was 0.369 nM in assay [1], 8.92 nM in assay [2] and 0.355 nM in assay [3].

B2: ADI-19486 (antibody, V domains shown)
VH: QVQLQESGPGLVKPSETLSLTCSVSGGSLTSYYWSWIRQPPGKGLEWIGYIYYSGSTNYNPSLKSRLTISVDTSKNQFSLKLSSVTAADTAVYYCARVGGRGVINVFDYWGQGTLVTVSS
VL: QPVLTQPASVSGSPGQSITISCTGTSSDVGGYNYVSWYQQHPGKAPKLMIYEVSNRPSGVSNRFSGSKSGNTASLTISGLQAEDEADYYCDSYRSNSASVVFGGGTKLTVL
notes: full-length IgG
In the case of B2, the figures for the Kd in assay [1] and in assay [3] were 0.525 nM and 7.55 nM, respectively.

B3: ADI-19476 (antibody, V domains shown)
VH: QVQLVESGPTLVKPTQTLTLTCTFSGFSLSTSRVGVGWIRQPPGKALEWLALIYWDDDKRYSPSLKSRLTITKDTSKNQVVLTMTNMDPVDTARYYCAHRSTYDILGGYYYFDYWGQGTLVTVSS
VL: QPVLTQPRSVSGSPGQSVTISCTGTSSDVGGYNYVSWFQQHPGKAPKLMIYDVSKRPSGVPNRFSGSKSGNTASLTISGLQAEDEADYFCCSYAGTYEVFGGGTKLTVL
notes: full-length IgG
B3: the Kd was determined as 0.801 nM in assay [1] and 0.838 nM in assay [3].

B4: ADI-25467 (antibody, V domains shown)
VH: GVQLVESGPGLVKPSETLSLTCTVSGGSISSYYWSWIRQPPGKGLEWIGYIYYSGSTNYNPSLKSRVTISVDTSKNQFSLKLSSVTAADTAVYYCARGYYYDSSGYYPNDAFDIWGQGTMVTVSS
VL: not shown
notes: full-length IgG
B4: the results for the Kd in assay [1] and in assay [3] were 25.3 nM and 26.2 nM, respectively.

B5: ADI-22777 (antibody, V domains shown)
VH: QVQLVQSGAEVKRPGASVKVSCKASEYTFNFHDINWVRQAPGQGLEWMGWMNPKSGNTGYAQKFQGRVTMTRDTSKNTAYLELSSLRSEDTAVYYCARGYGTSWSSDSWWGQGTLVTVSS
VL: SYELTQLPSVSVSPGQTARITCSGDALSKQFVYWYQQKPGLAPMLVIYKDTNRPSWIPERFSGSGSGTTATLTISEVQAEDEADYYCQSVDNSGTYGWVFGGGTKVTVL
notes: full-length IgG
Regarding B5, the figures for the dissociation constant (Kd) in assay [1], in assay [2] and in assay [3] were 0.268 nM, 0.762 nM and 0.224 nM, respectively.

B6: ADI-19483 (antibody, V domains shown)
VH: QVQLVQSGAEVKKPGESLKISCKGSGYSFTTYWIGWVRQMPGKGLEWMGIIFPGDSDTRYSPSFQGQVTISADKSISTAYLQWSSLKASDTAMYFCARSAFPFGFDIWGQGTMVTVSS
VL: SYVLTQPHSVSESPGKTVTISCTRSSGSIASNYVQWYQQRPGSSPTTVIYEDHQRPSGVPDRFSGSIDSSSNSASLTISGLQTEDEADYYCQSYGSGNPWVFGGGTKVTVL
notes: full-length IgG
B6: the Kd in assay [1] is 0.321 nM; in assay [2] it was 1.77 nM; in assay [3], 0.153 nM.

B7: ADI-24852 (antibody, V domains shown)
VH: QVQLVESGAEVKKPGASVKVSCKASGYTFTSYAIHWVRQAPGQRLEWMGWINAGNGNTKYSQKFQGRVTITRDTSASTAYMELSSLRSEDTAVYYCASEESGYFDYWGQGTLVTVSS
VL: not shown
notes: full-length IgG; also called Ab 413
As to B7, the Kd in assay [1] was 9.57 nM; in assay [2], 19 nM; in assay [3] it was 9.17 nM.

B8: ADI-22760 (antibody, V domains shown)
VH: EVQLVESGGGLVQPGRSLRLSCVASGFTFDDYAMHWVRQAPGKGLEWVSGINWNSGGIGYADSVKGRFTISRDNTKNSLYLQMNSLRAEDTALYYCAKDGSALMGYGVEVWGQGTTVTVSS
VL: SYELTQPPSASGTPGQRVTISCSGSNSNIGNNYVYWYQQLPGTAPKLLIYRNNQWPSGVPDRFSASKSGTSASLAISGLRSEDEADYYCASWDDSLSALVFGGGTKLTVL
notes: full-length IgG; also called Ab 340
On to B8, for which the results for the Kd in assay [1], in assay [2] and in assay [3] were 1.19 nM, 3.07 nM and 1.25 nM, respectively.

B9: ADI-14379 (antibody, V domains shown)
VH: EVQLLESGGGVVQPGRSLRLSCAASGFTFSSYAMHWVRQAPGKGLEWVAVIGNDGTNKYHADSVKGRFTISRDNSKNTLYLQMNSLRAEDTAVYYCARRRVGIMYSGSYWGGMDVWGQGTTVTVSS
VL: SYELTQPPSVSVSPGQTASITCSGDKLGGKYVSWYQQKPGQSPVLVMYQDTRRPSGIPERLSGSNSGSTATLTISATQAMDEADYYCQAWDITTVHVVFGGGTKLTVL
notes: full-length IgG; also called Ab 47
Regarding B9, the results for the Kd in assay [1] and in assay [3] were 3.29 nM and 2.35 nM, respectively.

B10: ADI-14372 (antibody, V domains shown)
VH: QVQLLESGGGLVQPGGSLRLSCAASGFTFSNYAMGWVRQAPGQGLEWVSRISATGGSTHYADSVRGRFTISRDNSKNTLYLQMNSLKAEDTAVYYCAKDRGYSRNLTPDYWGQGTLVTVSS
VL: ETTLTQSPSSLSASVGDRVTITCRASQGITNDLGWYQKKPGKAPKLLIYVASSLQSGVPSRFSGSGSGTDFTLTISSLQPEDFATYYCLQDYNYPITFGQGTKVDIK
notes: full-length IgG; also called Ab 40
For B10, the results for the Kd in assay [1] and in assay [3] were 0.659 nM and 4.43 nM, respectively.

B11: ADI-22763 (antibody, V domains shown)
VH: EVQLVESGGGLIQPGGSLRLSCAASGFTFSTYEMNWVRQAPGKGLEWVSSISTSGSTKDYAGSVKGRFTVSRDNAKNSLYLQMNSLRAEDTAIYYCARVYYYDSSGYYLALFDYWGQGTLVTVSS
VL: EIVLTQSPSSLSASVGDRVTITCRASQSIASYLNWYQQKPGKAPKLLIYAASSLRSGVPSRFSGSGSGTDFTLTISSLQPEDFATYYCQQSYSTPSLTFGGGTKLEIK
notes: full-length IgG
For B11, the Kd in assay [1] stood at 0.319 nM; in assay [2], 10.8 nM; in assay [3], 5.33 nM.

B12: ADI-19479 (antibody, V domains shown)
VH: QVQLVQSGAEVKKPGSSVKVSCKASGGTFSSNAINWVRQAPGQGLEWMGGIIPIFGTANYAQKFQGRVTITTDESTSTAYMELSSLRSEDTAVYYCATTFYYGSGADYWGQGTLVTVSS
VL: DIQMTQSPLSLPVTLGQPASISCRSSQSLVYSDGNMYLSWFQQRPGQSPRRLIYKVSNRDSGVPDRFSGSGSGTDFTLKISRVEAEDVGVYYCMQGTHWWTFGQGTKVEIK
notes: full-length IgG
For the molecule B12, the Kd in assay [1] was found to be 3.69 nM; in assay [3], 2.69 nM.

B13: ADI-24834 (antibody, V domains shown)
VH: QVQLVQSGGGLVQPGGSLRLSCAASGFTFSSYAMSWVRQAPGKGLEWVSTISGSGGSTYYADSVKGRFTISRDNSKNTLYLQMNSLRAEDTAVYYCATWKRWGSGYYYSYMDVWGKGTTVTVSS
VL: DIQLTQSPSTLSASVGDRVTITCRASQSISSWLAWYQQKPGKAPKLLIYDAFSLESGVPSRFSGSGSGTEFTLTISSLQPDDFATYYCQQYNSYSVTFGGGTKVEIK
notes: full-length IgG
As for B13, the Kd worked out at 0.211 nM in assay [1], 0.732 nM in assay [2] and 0.26 nM in assay [3].

B14: ADI-14339 (antibody, V domains shown)
VH: QVQLVESGGGVLQPGRSLRLPCEASGFTFNKYAMHWVRQAPGKGLEWVAAVSYDGGNKFYAESVKGRFTISRDNSKNTLYLQMNSLKPEDTAVYYCARDRWELLHGLDYWGLGTLVTVSS
VL: SYELTQPPSVSVSPGQTARITCSGEALAKQYAYWYQQKPGQAPVLVIYKDNERPSGISERFSGSSSGTTVTLTISGVQAEDEADYYCQSADSSGTYVFGTGTKVTVL
notes: full-length IgG; also called Ab 7
In the case of B14, the Kd in assay [1] came to 0.439 nM; in assay [2], 1.77 nM; in assay [3] it was 0.376 nM.

B15: ADI-19505 (antibody, V domains shown)
VH: QVQLVQSGAEVKKPGESLKISCKGSGYSFTNYWIGWVRQMPGKGLEWMGITYPGDSDTRYSPSFQGQVTISADKSISTAHLQWDSLKASDTAMYYCARLRCTGSICYDAFDIWGQGTTVTVSS
VL: SYVLTQPLSVSVALGQTARITCGGNNIGSKNVHWYQQKPGQAPVLVIYRDNNRPSGIPERFSGSNSGNTATLTISRAQAGDEADYYCQVWDSSTGGDVFGAGTKVTVL
notes: full-length IgG
B15: the results for the Kd in assay [1], in assay [2] and in assay [3] were 4.94 nM, 44.4 nM and 5.01 nM, respectively.

B16: ADI-22778 (antibody, V domains shown)
VH: EVQLVESGPGLVKPSETLSLTCTVSGGSINSYSWTWIRQPPGKGLEWLGSFDYSGSNTYNPSLKSRVTIAVDTSKNQFSLKLTSATAADTAVYYCARAPVYDSSGYYLYYFDNWGQGTLVTVSS
VL: DIQMTQSPSSLSASVGDRVTITCRASQSIASYLNWYQQKPGKAPKLLIFAASNLHSGVPSRFSGSGSGTTFTLTISSLQPEDFATYYCQQSYSIRFFTFGPGTKLEIK
notes: full-length IgG
For B16, the figures for the Kd in assay [1], in assay [2] and in assay [3] were 0.209 nM, 4.02 nM and 2.77 nM, respectively.

B17: ADI-22780 (antibody, V domains shown)
VH: EVQLVESGPTLVKPTQTLTLTCTFSGFSLSTSGVGVGWIRQPPGKALEWLALIYWDDDKRYSPSLKSRLTITKDTSKNQVVLTMTNMDPVDTATYYCAHRGRQYSYGYYYFDYWGQGTLVTVSS
VL: QSVLIQPASVSGSPGQSITISCTGTSSDVGGYNFVSWYQQHPGKAPKLMIYDVSNRPSGVSNRFSGSKSGNTASLTISGLQAEDEADYYCSSYTSSTLDVFGTGTKVTVL
notes: full-length IgG
Turning to B17, the figures for the dissociation constant (Kd) in assay [1], in assay [2] and in assay [3] were 0.739 nM, 23.8 nM and 0.6 nM, respectively.

B18: ADI-25587 (antibody, V domains shown)
VH: QVQLVESGGGVVQPGRSLRLSCAASGFTFSSYGMHWVRQAPGKGLEWVAVIWYDGSNKYYADSVKGRFTISRDNSKNTLYLQMNSLRAEDTAVYYCARDSTYSEAFDIWGQGTMVTVSS
VL: QSVLIQPASVSGSPGQSITISCTGTSSDVGGYNYVSWYQQHPGKAPKLMIYDVSNRPSGVSNRFSGSKSGNTASLTISGLQAEDEADYYCSSYTSSSTWVFGGGTKVTVL
notes: full-length IgG
In the case of B18, the results for the Kd in assay [1] and in assay [3] were 9.23 nM and 7.93 nM, respectively.

B19: ADI-22764 (antibody, V domains shown)
VH: QVQLVESGPGLVRPSGTLSLTCAVSGGSISGKNWWSWVRQPPGKGLEWIGEIDHSGSTNYNPSLKSRVTISVDKSKNQFSLKLSSVTAADTAVYYCARTGLYDSSGYYLYYFNYWGQGTLVTVSS
VL: EIVMTQSPSSLSASVGDRVTISCRASQTIASYVNWYQQRPGKAPNLLIFAASNLQTGVPSRFRGSGSGTVFTLTISSLQPEDFATYYCQQSYSTPRTFGQGTKVDIK
notes: full-length IgG
For B19, the Kd came out at 0.334 nM in assay [1], 1.42 nM in assay [2] and 1.44 nM in assay [3].

For the origin of these results see patent publication US20260258115A1 (MAPP BIOPHARMACEUTICAL, published 2026).
